From patent US10239925B2, “Peptides and combination of peptides for use in immunotherapy against ovarian cancer and other cancers” (IMMATICS BIOTECHNOLOGIES GMBH, priority 2015, dated 2019) come the findings set out here.

The assay addresses HLA-A*02:01 (Homo sapiens, UniProt P04439, D140Y/D185E/D98H/E176V/E277Q/G131W/G231S/I119V/I121R/I166T/I218V/L300P/L318F/N151K/N90K/P208A/P217A/Q86G/Q94H/R138H/R169H/T345S). Description: MHC binding assay (UV-ligand exchange, anti-β2m ELISA, peptide exchange yield). As to conditions: binding to HLA-A*02:01. In outline: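 Yield of stabilized complexes quantified via the β2m light chain in an ELISA (streptavidin capture, 100-fold diluted monomers, HRP anti-β2m 2 ug/ml at 37 °C, TMB, A450). The complexes come from UV-triggered replacement of a photocleavable ligand by the candidate peptide.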
(ELISA stands for enzyme-linked immunosorbent assay.)
“553 (SLLNQDLHWSL; listed as Homo sapiens) [compound 553]”: the “Peptide exchange (MHC class I binding score, peptide exchange yield)” value (“Peptide exchange” below) is on record as ““+++” (>50 = +++)”.

On to “324 (FLYDEIEAEV; listed as Homo sapiens) [compound 324]”, for which the “Peptide exchange” value is recorded as ““+++” (>50 = +++)”.

Regarding “63 (YLLPSGGSVTL; listed as Homo sapiens) [compound 63]”, the “Peptide exchange” value is recorded as ““++” (>20% = ++)”.

With “240 (ILLEQAFYL; listed as Homo sapiens) [compound 240]”, the “Peptide exchange” value is ““+++” (>50 = +++)”.

As to “407 (YLMDLINFL; listed as Homo sapiens) [compound 407]”, the “Peptide exchange” value is given as ““+++” (>50 = +++)”.

On to “322 (TLMTSLPAL; listed as Homo sapiens) [compound 322]”, for which the “Peptide exchange” value is listed as ““+++” (>50 = +++)”.

Regarding “458 (SLIDKLYNI; listed as Homo sapiens) [compound 458]”, the “Peptide exchange” value is ““++” (>20% = ++)”.

For “23 (VLLDDIFAQL; listed as Homo sapiens) [compound 23]”, the “Peptide exchange” value was ““+++” (>50 = +++)”.

Consider “498 (KLWTGGLDNTV; listed as Homo sapiens) [compound 498]”, for which the “Peptide exchange” value is ““+++” (>50 = +++)”.

With “606 (ALWETEVYI; listed as Homo sapiens) [compound 606]”, the “Peptide exchange” value is on record as ““+++” (>50 = +++)”.

“385 (SLLEQGLVEA; listed as Homo sapiens) [compound 385]”: the “Peptide exchange” value is given as ““++” (>20% = ++)”.

Turning to “39 (SVAPNLPAV; listed as Homo sapiens) [compound 39]”, the “Peptide exchange” value is recorded as ““+++” (>50 = +++)”.

Turning to “530 (VMYADIGGMDI; listed as Homo sapiens) [compound 530]”, the “Peptide exchange” value is reported as ““+++” (>50 = +++)”.

Turning to “145 (FLATSGTLAGI; listed as Homo sapiens) [compound 145]”, the “Peptide exchange” value is given as ““++” (>20% = ++)”.

As to “326 (FLPEALDFV; listed as Homo sapiens) [compound 326]”, the “Peptide exchange” value is listed as ““+++” (>50 = +++)”.

For the substance “349 (SLTEYLQNV; listed as Homo sapiens) [compound 349]”, the “Peptide exchange” value is given as ““++++” (>75% = ++++)”.

With “44 (ILDPISSGFLL; listed as Homo sapiens) [compound 44]”, the “Peptide exchange” value is listed as ““++” (>20% = ++)”.

On to “81 (FLFSQLQYL; listed as Homo sapiens) [compound 81]”, for which the “Peptide exchange” value is reported as ““++” (>20% = ++)”.

“339 (GLWEIENNPTVKA; listed as Homo sapiens) [compound 339]”: the “Peptide exchange” value is ““++++” (>75% = ++++)”.

For “602 (YLLEQIKLIEV; listed as Homo sapiens) [compound 602]”, the “Peptide exchange” value is ““++++” (>75% = ++++)”.

With “130 (FLWNGEDSALL; listed as Homo sapiens) [compound 130]”, the “Peptide exchange” value is reported as ““+++” (>50 = +++)”.

On to “565 (ALQETPTSV; listed as Homo sapiens) [compound 565]”, for which the “Peptide exchange” value was ““++” (>20% = ++)”.

On to “186 (TLFFQQNAL; listed as Homo sapiens) [compound 186]”, for which the “Peptide exchange” value is ““++” (>20% = ++)”.

In the case of “216 (NLWEDPYYL; listed as Homo sapiens) [compound 216]”, the “Peptide exchange” value is listed as ““+++” (>50 = +++)”.

As for “622 (RLLGEEVVRVLQA; listed as Homo sapiens) [compound 622]”, the “Peptide exchange” value was ““+++” (>50 = +++)”.

Regarding “278 (QLLDVVLTI; listed as Homo sapiens) [compound 278]”, the “Peptide exchange” value is recorded as ““++” (>20% = ++)”.

Consider “369 (GLFPEHLIDV; listed as Homo sapiens) [compound 369]”, for which the “Peptide exchange” value is given as ““+++” (>50 = +++)”.

With “453 (KLLEATSAV; listed as Homo sapiens) [compound 453]”, the “Peptide exchange” value is ““++” (>20% = ++)”.

Take “73 (NIFDLQIYV; listed as Homo sapiens) [compound 73]”: the “Peptide exchange” value is reported as ““+++” (>50 = +++)”.

Take “13 (YLMDESLNL; listed as Homo sapiens) [compound 13]”: the “Peptide exchange” value is recorded as ““+++” (>50 = +++)”.

In the case of “469 (YLASDEITTV; listed as Homo sapiens) [compound 469]”, the “Peptide exchange” value was ““+++” (>50 = +++)”.

Take “401 (ILLDDTGLAYI; listed as Homo sapiens) [compound 401]”: the “Peptide exchange” value is ““+++” (>50 = +++)”.

Take “45 (SLWQDIPDV; listed as Homo sapiens) [compound 45]”: the “Peptide exchange” value is ““+++” (>50 = +++)”.

With “513 (SLWPSPEQL; listed as Homo sapiens) [compound 513]”, the “Peptide exchange” value is ““++” (>20% = ++)”.

For “329 (FLVTLNNVEV; listed as Homo sapiens) [compound 329]”, the “Peptide exchange” value is ““++++” (>75% = ++++)”.

For “266 (KITDTLIHL; listed as Homo sapiens) [compound 266]”, the “Peptide exchange” value is recorded as ““+++” (>50 = +++)”.

“313 (VLFDDELLMV; listed as Homo sapiens) [compound 313]”: the “Peptide exchange” value is ““+++” (>50 = +++)”.

For the substance “457 (SLLPGNLVEKV; listed as Homo sapiens) [compound 457]”, the “Peptide exchange” value is listed as ““+++” (>50 = +++)”.

For the substance “200 (LLFGSVQEV; listed as Homo sapiens) [compound 200]”, the “Peptide exchange” value is recorded as ““+++” (>50 = +++)”.

On to “251 (ALYTGFSILV; listed as Homo sapiens) [compound 251]”, for which the “Peptide exchange” value is given as ““++” (>20% = ++)”.

Regarding “223 (ALLENIALYL; listed as Homo sapiens) [compound 223]”, the “Peptide exchange” value was ““+++” (>50 = +++)”.

On to “330 (QLALKVEGV; listed as Homo sapiens) [compound 330]”, for which the “Peptide exchange” value is given as ““+++” (>50 = +++)”.

For the substance “430 (HLYSSIEHLTT; listed as Homo sapiens) [compound 430]”, the “Peptide exchange” value was ““+++” (>50 = +++)”.

“549 (AMLENASDIKL; listed as Homo sapiens) [compound 549]”: the “Peptide exchange” value was ““+++” (>50 = +++)”.

“134 (YLQELIFSV; listed as Homo sapiens) [compound 134]”: the “Peptide exchange” value is given as ““+++” (>50 = +++)”.

With “405 (ALYDVFLEV; listed as Homo sapiens) [compound 405]”, the “Peptide exchange” value was ““++” (>20% = ++)”.
